Results taken from US12031981B2, “Method for electronic detection and quantification of antibodies” (Arizona Board of Regents on behalf of Arizona State …, priority 2018, dated 2024).

Target: RGD peptide
Test: Single molecule conductance of integrin binding RGD peptide on electrodes
Settings: one ligand binding site

Sequence of RGD peptide (P06756 31-889 limits assumed): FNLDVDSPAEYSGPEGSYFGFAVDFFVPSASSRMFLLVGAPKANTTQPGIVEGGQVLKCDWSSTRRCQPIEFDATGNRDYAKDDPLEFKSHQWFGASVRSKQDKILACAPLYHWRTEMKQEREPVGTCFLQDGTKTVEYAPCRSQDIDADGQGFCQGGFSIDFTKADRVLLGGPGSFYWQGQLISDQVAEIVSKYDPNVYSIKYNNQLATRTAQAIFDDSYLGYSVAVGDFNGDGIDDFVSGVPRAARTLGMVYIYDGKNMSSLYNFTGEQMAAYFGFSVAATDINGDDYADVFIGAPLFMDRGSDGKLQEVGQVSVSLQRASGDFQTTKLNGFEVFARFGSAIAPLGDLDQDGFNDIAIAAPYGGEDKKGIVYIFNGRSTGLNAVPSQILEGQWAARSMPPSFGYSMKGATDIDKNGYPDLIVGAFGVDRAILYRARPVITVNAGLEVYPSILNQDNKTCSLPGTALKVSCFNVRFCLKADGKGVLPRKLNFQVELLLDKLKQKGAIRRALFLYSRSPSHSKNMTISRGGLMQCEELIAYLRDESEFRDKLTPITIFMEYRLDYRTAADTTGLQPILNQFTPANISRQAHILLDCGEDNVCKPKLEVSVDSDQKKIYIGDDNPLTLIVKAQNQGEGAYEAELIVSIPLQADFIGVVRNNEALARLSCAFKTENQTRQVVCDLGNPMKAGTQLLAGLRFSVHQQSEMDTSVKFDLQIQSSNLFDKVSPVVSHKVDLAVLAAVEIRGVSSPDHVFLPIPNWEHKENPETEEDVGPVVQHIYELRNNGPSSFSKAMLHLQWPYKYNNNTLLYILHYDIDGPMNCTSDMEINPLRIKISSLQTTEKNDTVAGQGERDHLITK
Sequence of RGD peptide (P06756 891-1048 partner limits assumed): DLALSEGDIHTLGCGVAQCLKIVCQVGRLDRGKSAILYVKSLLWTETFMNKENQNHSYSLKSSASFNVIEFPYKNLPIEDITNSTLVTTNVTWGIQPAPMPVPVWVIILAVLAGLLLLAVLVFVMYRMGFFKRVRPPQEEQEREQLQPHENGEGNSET
Sequence of RGD peptide (P05106 27-788, further chain): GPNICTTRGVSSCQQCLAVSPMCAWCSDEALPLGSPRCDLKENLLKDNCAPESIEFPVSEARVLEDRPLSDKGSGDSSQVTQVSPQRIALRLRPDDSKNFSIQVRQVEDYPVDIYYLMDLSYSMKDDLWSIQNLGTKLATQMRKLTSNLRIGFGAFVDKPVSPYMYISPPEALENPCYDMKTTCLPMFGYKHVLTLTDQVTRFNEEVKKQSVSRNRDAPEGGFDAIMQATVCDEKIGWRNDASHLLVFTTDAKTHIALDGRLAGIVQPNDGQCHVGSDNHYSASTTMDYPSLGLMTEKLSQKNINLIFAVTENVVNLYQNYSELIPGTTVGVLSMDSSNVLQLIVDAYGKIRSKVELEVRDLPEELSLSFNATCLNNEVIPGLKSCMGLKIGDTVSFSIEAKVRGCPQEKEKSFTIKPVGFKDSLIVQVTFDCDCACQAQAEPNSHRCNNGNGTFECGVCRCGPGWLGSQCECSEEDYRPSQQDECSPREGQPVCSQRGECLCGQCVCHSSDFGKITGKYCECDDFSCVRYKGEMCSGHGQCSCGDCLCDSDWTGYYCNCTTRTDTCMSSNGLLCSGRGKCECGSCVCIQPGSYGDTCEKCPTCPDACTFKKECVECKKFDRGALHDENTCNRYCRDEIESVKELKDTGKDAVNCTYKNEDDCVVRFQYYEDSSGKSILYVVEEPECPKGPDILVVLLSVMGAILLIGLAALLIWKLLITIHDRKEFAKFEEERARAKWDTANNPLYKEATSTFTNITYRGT

“Integrin: αvβ3 integrin binding RGD peptide; only one ligand binding site” was tested, and the “conductance G, single peak of distribution” value was 0.3 nS.
